# Assay results reported in patent US20240376196A1 (HEFEI TG IMMUNOPHARMA, published 2024).
# Experiments:
# [1] = molecular target: T1, human CD112 extracellular region His tag fusion protein (human, UniProt Q92692 32-360); test: competition ELISA, CD112-His coated, blocked ligand TIGIT-Biotin, HRP-streptavidin, OD450
# T1 construct: Bought from Acro; only its extracellular domain stood in the assay; also called CD112-His; CD112 extracellular domain His tag fusion protein; not shown: His tag
# T1 sequence: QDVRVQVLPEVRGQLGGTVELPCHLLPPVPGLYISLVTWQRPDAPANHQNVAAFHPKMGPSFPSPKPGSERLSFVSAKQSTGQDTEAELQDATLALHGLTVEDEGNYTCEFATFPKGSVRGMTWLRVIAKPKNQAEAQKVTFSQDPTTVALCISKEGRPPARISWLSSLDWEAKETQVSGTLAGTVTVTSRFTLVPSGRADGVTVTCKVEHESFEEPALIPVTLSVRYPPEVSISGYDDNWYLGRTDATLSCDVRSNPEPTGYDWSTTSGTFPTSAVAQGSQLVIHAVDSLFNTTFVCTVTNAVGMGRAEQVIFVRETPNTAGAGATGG
# Protocol: (§1) The ELISA experiment was used to determine the blocking characteristic of the murine antibody CD112 9G11 antibody.
# (§2) The human CD112-His protein (purchased from Acro) was diluted to 2 μg/ml with PBS buffer and added to a 96-well plate in a volume of 100 μl/well and left overnight at 4° C. The PBS buffer solution was sucked off from the 96-well plate. The plate was washed 6 times with PBST (pH 7.2, PBS containing 0.1 vol % of Tween 20) buffer solution. 200 μL of PBS containing 10% BSA was added per well and incubated at 37° C. for 2 hours for blocking. The blocking solution was removed and the plate was washed 6 times with PBST. […] The reaction system was removed. The plate was washed 6 times with PBST. 100 μL of HRP (horseradish peroxidase)-labeled Streptavidin secondary (purchased from Southern Biotech) antibody diluted with PBST containing 0.05% BSA (diluted at 1:5000) per well and incubated for 1 h at 37° C. The plate was washed 6 times with PBST, and 80 μL of TMB (tetramethylbenzidine) was added per well. After 3 min of incubation at room temperature, 80 μL of 4M sulfuric acid was added per well to terminate the reaction. The absorbance was read at […] with a microplate reader.
# [2] = molecular target: T1, human CD112 extracellular region His …; test: competition ELISA, CD112-His coated, blocked ligand CD226-Biotin, HRP-streptavidin, OD450
# Protocol: as §1, §2
# [3] = molecular target: T1, human CD112 extracellular region His …; test: competition ELISA, CD112-His coated, blocked ligand CD112R-Fc-Biotin, HRP-streptavidin, OD450
# Protocol: as §1, §2
binder,measurement,setting,value
"murine monoclonal antibody 9G11 (antibody, mouse IgG2a, kappa, also called 9G11 antibody; CD112 murine antibody 9G11) heavy: DVKLVESGGGLVKLGGSLKLSCAASGFTFSSYYMSWVRQTPEKRLELVAAINSQGGSTYYPDTVKGRFTISRDNAKNTLYLQMSSLKSEDTGLYYCARSDYDWAWFAYWGQGTLVTVSAAKTTAPSVYPLAPVCGDTTGSSVTLGCLVKGYFPEPVTLTWNSGSLSSGVHTFPAVLQSDLYTLSSSVTVTSSTWPSQSITCNVAHPASSTKVDKKIEPRGPTIKPCPPCKCPAPNLLGGPSVFIFPPKIKDVLMISLSPIVTCVVVDVSEDDPDVQISWFVNNVEVHTAQTQTHREDYNSTLRVVSALPIQHQDWMSGKEFKCKVNNKDLPAPIERTISKPKGSVRAPQVYVLPPPEEEMTKKQVTLTCMVTDFMPEDIYVEWTNNGKTELNYKNTEPVLDSDGSYFMYSKLRVEKKNWVERNSYSCSVVHEGLHNHHTTKSFSRTPGK light: not shown",IC50 (read off the curve),[1],~0.5 µg/mL
same,IC50 (read off the curve),[2],~6 µg/mL
same,IC50 (read off the curve),[3],~0.5 µg/mL
